Where “and” joins values, the source holds several entries; their conditions need not be identical. Equal entries are not always repeated. Where two headings read alike, the source gives them in different places.
Assays:
[1] = target: T1, H-2 Kb tetramer (murine), P01901; test: peptide exchange on H-2 Kb PE tetramer, reference peptide 2 µM, glycyl-methionine, 4 h; competitor: exiting peptide TFQRK(DNP)PAAF; bead sandwich immunoassay, flow cytometry
T1 chain: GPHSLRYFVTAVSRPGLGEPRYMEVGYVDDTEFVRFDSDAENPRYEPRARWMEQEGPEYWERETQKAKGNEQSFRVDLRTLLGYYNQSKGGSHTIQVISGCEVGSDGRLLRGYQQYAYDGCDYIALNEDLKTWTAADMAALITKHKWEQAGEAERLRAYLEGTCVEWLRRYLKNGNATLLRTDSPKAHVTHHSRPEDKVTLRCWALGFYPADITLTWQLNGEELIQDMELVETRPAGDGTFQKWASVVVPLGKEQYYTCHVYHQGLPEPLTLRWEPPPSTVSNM

[2] = target: T1, H-2 Kb tetramer (murine), P01901; test: peptide exchange on H-2 Kb BV421 tetramer, reference peptide 2 µM, glycyl-methionine, 4 h; competitor: exiting peptide TFQRK(DNP)PAAF; bead sandwich immunoassay, flow cytometry
[3] = target: T1, H-2 Kb tetramer (murine), P01901; test: peptide exchange on H-2 Kb APC tetramer, reference peptide 2 µM, glycyl-methionine, 4 h; competitor: exiting peptide TFQRK(DNP)PAAF; bead sandwich immunoassay, flow cytometry
[4] = target: T1, H-2 Kb tetramer (murine), P01901; test: peptide exchange on H-2 Kb APC tetramer, reference peptide 20 µM, glycyl-methionine, 4 h; competitor: exiting peptide TFQRK(DNP)PAAF; bead sandwich immunoassay, flow cytometry
[5] = target: T1, H-2 Kb tetramer (murine), P01901; test: peptide exchange on H-2 Kb BV421 tetramer, reference peptide 20 µM, glycyl-methionine, 4 h; competitor: exiting peptide TFQRK(DNP)PAAF; bead sandwich immunoassay, flow cytometry
[6] = target: T1, H-2 Kb tetramer (murine), P01901; test: peptide exchange on H-2 Kb PE tetramer, reference peptide 20 µM, glycyl-methionine, 4 h; bead sandwich immunoassay, flow cytometry
[7] = target: T1, H-2 Kb tetramer (murine), P01901
[8] = target: HLA-A*02:01 tetramer (human); test: peptide exchange on HLA-A*02:01 tetramer, entering peptide 20 µM, 4 h; competitor: exiting peptide ILKEKK(DNP)VHGV; capture on anti HLA-ABC beads, anti-DNP FITC, flow cytometry
[9] = target: HLA-A*02:01 tetramer (human)
[10] = target: HLA-A*24:02 tetramer (human); test: peptide exchange on HLA-A*24:02 tetramer, competing peptide 20 µM, 4 h; competitor: exiting peptide TFQRK(DNP)PAAF; capture on anti HLA-ABC beads, anti-DNP FITC, flow cytometry
[11] = target: HLA-A*24:02 tetramer (human)
[12] = remark: other sources report otherwise

SIYRYYGL (modifications not checked) [reference entering peptide (SIYRYYGL (SEQ ID NO: 59))]
% peptide exchange [1]: 92.7% | % peptide exchange [2]: 90.6% | % peptide exchange [3]: 97.1% | % peptide exchange [4]: 99.1% | % peptide exchange [5]: 97.3% | % peptide exchange [6]: 100%

TFQRKPAAF (modifications not checked) [TFQRK(DNP)PAAF (SEQ ID NO: 16)]
% peptide exchange (loss of the exiting peptide without entering peptide) [7]: 16% and 13.3% and 30.4%

YLLEFTPPV (modifications not checked) [HLA-A*02:01 Reference peptide, … (SEQ ID NO: 5)]
% peptide exchange [8]: 91.9%

FLYDDNQRV (modifications not checked) [… (SEQ ID NO: 33)]
% peptide exchange [8]: 91.2%

GLADQLIHL (modifications not checked) [… (SEQ ID NO: 23)]
% peptide exchange [9]: 91.4%

AVLDGLLSL (modifications not checked) [… (SEQ ID NO: 34)]
% peptide exchange [8]: 90.7%

GLAVVTHGL (modifications not checked) [… (SEQ ID NO: 24)]
% peptide exchange [8]: 91%

WMHKVPASL (modifications not checked) [… (SEQ ID NO: 35)]
% peptide exchange [8]: 87.9%

CINGVCWTV (modifications not checked) [… (SEQ ID NO: 36)]
% peptide exchange [9]: 85.3%

WMHHNMDLI (modifications not checked) [… (SEQ ID NO: 37)]
% peptide exchange [8]: 89.2%

SLPPPGTRV (modifications not checked) [… (SEQ ID NO: 38)]
% peptide exchange [8, 12]: 86.6%

LTLGEFLKL (modifications not checked) [… (SEQ ID NO: 39)]
% peptide exchange [8]: 43.6%

IMQLMPFGC (modifications not checked) [… (SEQ ID NO: 40)]
% peptide exchange [8, 12]: 40.9%

IMQIMPYGC (modifications not checked) [… (SEQ ID NO: 41)]
% peptide exchange [8]: 59.9%

RIKDFLRNL (modifications not checked) [… (SEQ ID NO: 42)]
% peptide exchange [8]: 34%

ALLAVGATK (modifications not checked) [… (SEQ ID NO: 43)]
% peptide exchange [8]: 25.7%

CSLWNGPHL (modifications not checked) [… (SEQ ID NO: 44)]
% peptide exchange [8]: 55.2%

EYILSLEEL (modifications not checked) [… (SEQ ID NO: 45)]
% peptide exchange [8]: 24.2%

ALALEVGEL (modifications not checked) [… (SEQ ID NO: 46)]
% peptide exchange [8]: 85.1%

SYVPSAEQI (modifications not checked) [… (SEQ ID NO: 47)]
% peptide exchange [8]: 25%

ATVQGQNLK (modifications not checked) [… (SEQ ID NO: 48)]
% peptide exchange [8]: 27.9%

IRLRPGGKK (modifications not checked) [… (SEQ ID NO: 49)]
% peptide exchange [9]: 25%

AMAPRTLLL (modifications not checked) [… (SEQ ID NO: 18)]
% peptide exchange [10]: 81.6%

FLSELTQQL (modifications not checked) [… (SEQ ID NO: 21)]
% peptide exchange [10]: 23.6%

GYSLKLSKL (modifications not checked) [… (SEQ ID NO: 25)]
% peptide exchange [11]: 37.9%

IYSTVASSL (modifications not checked) [… (SEQ ID NO: 27)]
% peptide exchange [11]: 101%

LNMADKKET (modifications not checked) [… (SEQ ID NO: 28)]
% peptide exchange [11]: 10.3%

RVRAYTYSK (modifications not checked) [… (SEQ ID NO: 30)]
% peptide exchange [11]: 10.3%

RYMRWTYRF (modifications not checked) [… (SEQ ID NO: 31)]
% peptide exchange [11]: 101%

From patent US12044680
